The source of these data is patent publication US6972319B1, “Pituitary adenylate cyclase activating peptide (PACAP)receptor 3 (R3) agonists and their pharmacological methods of use” (priority 1999, dated 2005).

No end group written: not given here.

This test deals with T1, PACAP-R3 (human, UniProt P41587 24-438).
T1 sequence (looked up): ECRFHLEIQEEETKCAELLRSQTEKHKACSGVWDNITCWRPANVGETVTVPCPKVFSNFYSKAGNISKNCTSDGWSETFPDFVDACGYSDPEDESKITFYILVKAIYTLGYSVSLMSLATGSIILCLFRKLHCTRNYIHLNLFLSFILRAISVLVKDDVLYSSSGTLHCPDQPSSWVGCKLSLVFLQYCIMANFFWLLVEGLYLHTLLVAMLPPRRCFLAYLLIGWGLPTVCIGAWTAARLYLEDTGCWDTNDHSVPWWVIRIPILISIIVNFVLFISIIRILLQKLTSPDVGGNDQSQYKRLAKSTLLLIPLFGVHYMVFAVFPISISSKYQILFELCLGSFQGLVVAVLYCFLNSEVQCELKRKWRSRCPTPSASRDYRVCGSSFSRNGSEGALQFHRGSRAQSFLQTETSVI
Briefly: cell-based or functional assay.

In the case of HSDAVFTDNYTRLRKQMAAKKYLNSIKNKH [R3P159], the “R3 EC50” value turned out to be 0.5 nM and the “R3 Selectivity” value amounted to 400.
The like results for HSDAVFTDNYTRLRKQLAAKKYLNDIKKKRY [R3P36] were, in that order, 0.4 nM and above 200.
On to HSDAVFTDNYTRLRKQMAAKKYLNSIKNMR [R3P143], for which the “R3 EC50” value worked out at 0.2 nM and the “R3 Selectivity” value was found to be 30.
With HSDAVFTDNYTRLRKQMAAKKYLNSIKNKM [R3P163], the “R3 EC50” value was 0.2 nM.
For the molecule HSDAVFTDNYTRLRKQMAVKKYLNDLKKGGT [R3P14], the “R3 EC50” value worked out at 17 nM and the “R3 Selectivity” value came out at 3.
In the case of HSDAVFTDNYTRLRKQLAVKKYLNDIKKGGT [R3P21], the “R3 EC50” value was determined as 0.3 nM and the “R3 Selectivity” value was determined as 60.
The like results for HSDAVFTDNYTRLRKQMAAKKYLNSIKKGGT [R3P26] were, in that order, 0.55 nM and above 180.
As to HSDAVFTDNYTRLRKQLAVKKYLNDIKNGGT [R3P29], the “R3 EC50” value worked out at 0.5 nM and the “R3 Selectivity” value is above 200.
For HSDAVFTDNYTRLRKQLAVKKYLNSIKKGGT [R3P25], in that order: 0.7 nM and 20.
Consider HSDAVFTDNYTRLRKQMAAKKYLNDIKKGGT [R3P20], for which the “R3 EC50” value was 1.4 nM and the “R3 Selectivity” value was 230.
In the case of HSDAVFTDNYTRLRKQMAVKKYLNSIKN [R3P42], the “R3 EC50” value amounted to 0.03 nM and the “R3 Selectivity” value is 10.
For HSDAVFTDNYTRLRKQMAAKKYLNSIKNGR [R3P139], in that order: 0.4 nM and 50.
With HSDAVFTDNYTRLRKQMAAKKYLNSIKNKA [R3P153], the “R3 EC50” value came out at 0.2 nM and the “R3 Selectivity” value came to 200.
Regarding HSDAVFTDNYTRLRKQMAAKKYLNSIKNVR [R3P150], the “R3 EC50” value was determined as 0.8 nM and the “R3 Selectivity” value is 50.
Turning to HSDAVFTDNYTRLRKQMAAKKYLNSIKNKE [R3P156], the “R3 EC50” value was found to be 1 nM and the “R3 Selectivity” value came to 100.
Regarding HSDAVFTDNYTRLRKQLAAKKYLNDIKKNQ [R3P35], the “R3 EC50” value was found to be 2.6 nM and the “R3 Selectivity” value was above 40.
For HSDAVFTDNYTRLRKQMAAKKYLNSIKNPR [R3P145], in that order: 0.5 nM and 100.
As for HSDAVFTDNYTRLRKQMAAKKYLNSIKNSR [R3P148], the “R3 EC50” value amounted to 0.3 nM and the “R3 Selectivity” value is 100.
The like results for HSDAVFTDNYTRLRKQMAAKKYLNSIKNKF [R3P157] were, in that order, 0.3 nM and 170.
For HSDAVFTDNYTRLRKQMAAKKYLNSIKNKG [R3P158], in that order: 0.07 nM and 90.
The like results for HSDAVFTDNYTRLRKQLAAKKYLNDIKK-NH2 [R3P13] were, in that order, 5 nM and 33.
As to HSDAVFTDNYTRLRKQMAAKKYLNSIKNRR [R3P147], the “R3 EC50” value worked out at 0.2 nM and the “R3 Selectivity” value was found to be 500.
Turning to HSDAVFTDNYTRLRKQMAAKKYLNSIKNKK [R3P161], the “R3 EC50” value worked out at 0.2 nM and the “R3 Selectivity” value was determined as 300.
As for HSDAVFTDNYTRLRKQMAAKKYLNSIKNKI [R3P160], the “R3 EC50” value stood at 0.2 nM and the “R3 Selectivity” value stood at 500.
As to HSDAVFTDNYTRLRKQMAAKKYLNSIKNTR [R3P149], the “R3 EC50” value turned out to be 0.5 nM and the “R3 Selectivity” value was found to be 80.
As to HSDAVFTDNYTRLRKQMAVKKYLNSILK [R3P43], the “R3 EC50” value was 0.08 nM and the “R3 Selectivity” value amounted to 10.
For HSDAVFTDNYTRLRKQMAAKKYLNSIKNLR [R3P142], in that order: 0.2 nM and 30.
In the case of HSDAVFTDNYTRLRKQMAAKKYLNSIKNIR [R3P141], the “R3 EC50” value amounted to 0.2 nM and the “R3 Selectivity” value was determined as 100.
For HSDAVFTDNYTRLRKQMAAKKYLNSIKNHR [R3P140], in that order: 0.3 nM and 50.
HSDAVFTENYTKLRKQLAAKKYLNDLKKGGTSWCEPGWCR [R3P19]: the “R3 EC50” value came out at 1.4 nM and the “R3 Selectivity” value came to 30.
The like results for HSDAVFTDNYTRLRKQMAAKKYLNSIKNQR [R3P146] were, in that order, 0.3 nM and 100.
Take HSDAVFTDNYTRLRKQMAVKKYLNSIKK [R3P41]: the “R3 EC50” value came out at 0.08 nM and the “R3 Selectivity” value came out at 100.
For HSDAVFTDNYTRLRKQMAAKKYLNSIKNKN [R3P164], in that order: 0.3 nM and 300.
For HSDAVFTDNYTRLRKQMAAKKYLNSIKNNR [R3P144], in that order: 3 nM and 100.
For HSDAVFTDNYTRLRKQLAAKKYLNDIKKG [R3P32], in that order: 0.4 nM and 200.
Consider HSDAVFTDNYTRLRKQLAAKKYLNDIKK [R3P33], for which the “R3 EC50” value is 0.5 nM and the “R3 Selectivity” value is above 200.
The like results for HSDAVFTDNYTRLRKQLAAKKYLNDIKKGG [R3P31] were, in that order, 0.3 nM and above 300.
With HSDAVFTDNYTRLRKQMAAKKYLNSIKNKD [R3P155], the “R3 EC50” value worked out at 0.4 nM and the “R3 Selectivity” value stood at 100.
For HSDAVFTDNYTRLRKQLAAKKYLNSIKKGGT [R3P22], the “R3 EC50” value was determined as 1.6 nM and the “R3 Selectivity” value is 24.
For HSDAVFTDNYTRLRKQLAAKKYLNSIKNGGT [R3P30], in that order: 0.4 nM and 50.
The like results for HSDAVFTDNYTRLRKQLAAKKYLNDIKKQ [R3P34] were, in that order, 1.4 nM and above 70.
